Measured values reported in patent US20250207119A1 (VERRA THERAPEUTICS, published 2025).

T1: Human ADAM10 from R & D Systems (human, UniProt O14672 214-672)
T1 sequence (looked up): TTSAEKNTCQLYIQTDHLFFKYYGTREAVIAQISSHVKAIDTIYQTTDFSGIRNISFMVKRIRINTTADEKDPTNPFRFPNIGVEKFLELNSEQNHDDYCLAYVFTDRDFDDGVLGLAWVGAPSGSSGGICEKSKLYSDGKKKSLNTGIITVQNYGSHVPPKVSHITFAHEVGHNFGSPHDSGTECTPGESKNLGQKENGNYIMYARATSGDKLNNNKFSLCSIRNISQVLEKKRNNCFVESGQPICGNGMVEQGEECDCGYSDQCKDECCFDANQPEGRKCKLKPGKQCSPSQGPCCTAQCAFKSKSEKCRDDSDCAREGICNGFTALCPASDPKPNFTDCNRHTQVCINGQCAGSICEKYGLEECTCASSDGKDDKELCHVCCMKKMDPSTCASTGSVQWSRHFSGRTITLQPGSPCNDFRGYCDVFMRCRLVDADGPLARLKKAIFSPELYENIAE

T2: MMP 2 (UniProt P08253 30-660, limits assumed)
T2 sequence (looked up): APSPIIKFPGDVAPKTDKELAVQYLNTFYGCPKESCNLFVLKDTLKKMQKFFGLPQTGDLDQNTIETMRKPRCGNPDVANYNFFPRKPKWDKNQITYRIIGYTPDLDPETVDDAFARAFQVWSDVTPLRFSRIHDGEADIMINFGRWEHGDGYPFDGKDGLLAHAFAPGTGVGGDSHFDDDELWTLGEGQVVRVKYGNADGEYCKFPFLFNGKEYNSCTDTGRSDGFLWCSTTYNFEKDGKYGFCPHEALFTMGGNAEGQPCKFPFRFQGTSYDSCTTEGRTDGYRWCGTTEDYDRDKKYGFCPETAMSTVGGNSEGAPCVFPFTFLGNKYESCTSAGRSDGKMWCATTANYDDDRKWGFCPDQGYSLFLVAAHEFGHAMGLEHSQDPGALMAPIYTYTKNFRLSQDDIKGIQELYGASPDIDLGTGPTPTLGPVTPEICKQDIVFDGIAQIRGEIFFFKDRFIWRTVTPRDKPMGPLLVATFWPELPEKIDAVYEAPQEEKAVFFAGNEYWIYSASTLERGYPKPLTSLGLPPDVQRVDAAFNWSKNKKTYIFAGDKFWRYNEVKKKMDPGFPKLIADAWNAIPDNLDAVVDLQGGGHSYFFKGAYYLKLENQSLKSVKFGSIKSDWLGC


How the values were obtained:
Experiment in all cases: cell-based or functional assay
[1] = target: T1, Human ADAM10 from R & D Systems
[2] = target: Meprin from R & D Systems
MMP 3 = MMP 3 (UniProt P08254 18-477, limits assumed)
MMP 14 = MMP 14 (UniProt P50281 21-538)
MMP 2 = target: T2, MMP 2
MMP 12 = MMP 12 (UniProt P39900 17-470, limits assumed)
MMP 9 = MMP 9 (UniProt P14780 20-707, limits assumed)
MMP 9, sequence (P14780 20-707 limits assumed): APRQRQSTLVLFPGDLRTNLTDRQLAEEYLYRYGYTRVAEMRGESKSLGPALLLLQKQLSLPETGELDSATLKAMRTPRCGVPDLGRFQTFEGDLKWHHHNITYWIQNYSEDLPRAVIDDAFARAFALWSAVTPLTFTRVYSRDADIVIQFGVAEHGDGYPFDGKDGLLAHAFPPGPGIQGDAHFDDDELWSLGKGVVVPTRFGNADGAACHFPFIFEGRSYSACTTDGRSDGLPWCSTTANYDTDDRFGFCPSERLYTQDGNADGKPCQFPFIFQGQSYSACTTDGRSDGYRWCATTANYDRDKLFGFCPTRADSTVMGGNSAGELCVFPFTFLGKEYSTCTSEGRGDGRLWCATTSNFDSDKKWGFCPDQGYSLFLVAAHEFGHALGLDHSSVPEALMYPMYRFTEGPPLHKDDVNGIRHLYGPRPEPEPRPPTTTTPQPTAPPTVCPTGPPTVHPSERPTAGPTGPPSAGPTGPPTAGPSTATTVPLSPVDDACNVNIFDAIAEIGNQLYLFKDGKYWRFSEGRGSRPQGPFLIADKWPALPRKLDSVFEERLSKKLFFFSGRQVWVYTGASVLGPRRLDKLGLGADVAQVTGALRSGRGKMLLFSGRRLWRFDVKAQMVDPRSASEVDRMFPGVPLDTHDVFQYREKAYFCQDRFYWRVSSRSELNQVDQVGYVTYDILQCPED

MMP 12, sequence (P39900 17-470 limits assumed): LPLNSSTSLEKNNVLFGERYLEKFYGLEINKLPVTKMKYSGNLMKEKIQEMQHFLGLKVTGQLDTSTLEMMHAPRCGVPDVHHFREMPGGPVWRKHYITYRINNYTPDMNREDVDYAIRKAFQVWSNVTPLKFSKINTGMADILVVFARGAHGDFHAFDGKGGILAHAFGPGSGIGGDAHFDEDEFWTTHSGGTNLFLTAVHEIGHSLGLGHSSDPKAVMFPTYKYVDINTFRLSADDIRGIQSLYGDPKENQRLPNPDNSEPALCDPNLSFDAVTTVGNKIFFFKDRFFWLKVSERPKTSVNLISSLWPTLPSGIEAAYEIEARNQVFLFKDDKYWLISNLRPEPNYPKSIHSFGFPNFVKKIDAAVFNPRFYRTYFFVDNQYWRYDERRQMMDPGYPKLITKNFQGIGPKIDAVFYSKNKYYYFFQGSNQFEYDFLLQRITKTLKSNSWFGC
MMP 3, sequence (P08254 18-477 limits assumed): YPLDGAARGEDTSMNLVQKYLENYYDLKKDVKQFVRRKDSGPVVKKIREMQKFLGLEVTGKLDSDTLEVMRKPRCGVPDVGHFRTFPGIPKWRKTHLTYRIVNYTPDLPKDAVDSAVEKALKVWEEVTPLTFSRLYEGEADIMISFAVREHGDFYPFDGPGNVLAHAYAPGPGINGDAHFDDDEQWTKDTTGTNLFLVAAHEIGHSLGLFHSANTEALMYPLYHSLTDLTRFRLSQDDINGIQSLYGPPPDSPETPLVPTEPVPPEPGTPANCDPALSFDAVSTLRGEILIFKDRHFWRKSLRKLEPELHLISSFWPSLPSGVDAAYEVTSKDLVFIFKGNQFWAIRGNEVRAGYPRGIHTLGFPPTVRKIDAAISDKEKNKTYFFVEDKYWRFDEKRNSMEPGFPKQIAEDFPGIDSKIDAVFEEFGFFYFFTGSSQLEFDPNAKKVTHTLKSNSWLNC

Row | Binder | IC50 (nM), inhibition of ADAM10 cleavage of the fluorescent substrate PEPDAB064 [1] [nM] | IC50 (nM), inhibition of meprin cleavage of the fluorescent substrate PEPDAB022 [2] [nM] | other results
1 | N-term PEG-SEQ ID NO: 70 (R29K; R55K; C151S; E177A) (10 kDa maleimide PEG on a cysteine at the N-terminus ('N-term PEG')) CGSNPLNKYIRHYEGLSYNVDSLHQKHQRAKKAVSHEDQFLRLDFHAHGRHFNLRMKKDTSLFSDEFKVETSNKVLDYDTSHIYTGHIYGEEGSFSHGSVIDGRFEGFIQTRGGTFYVEPAERYIKDRTLPFHSVIYHEDDINYPHKYGPQGGSADHSVFERMRKYQMTGVEEVTQIPQAEHAANGPELLRK | 52 |  | IC50, inhibition of meprin cleavage of the fluorescent substrate PEPDAB022 [2]: ~7 µM
2 | SEQ ID NO: 65 (R26A; R52A; C151S) (peptide) NPLNKYIRHYEGLSYNVDSLHQKHQAAKRAVSHEDQFLRLDFHAHGRHFNLAMKRDTSLFSDEFKVETSNKVLDYDTSHIYTGHIYGEEGSFSHGSVIDGRFEGFIQTRGGTFYVEPAERYIKDRTLPFHSVIYHEDDINYPHKYGPQGGSADHSVFERMRKYQMTGVEEVTQIPQAEHAANGPELLRK | 49 | 289 | 
3 | SEQ ID NO: 9 (mut3; K28A; K54A; E88A; E177A) (peptide) NPLNKYIRHYEGLSYNVDSLHQKHQRAARAVSHEDQFLRLDFHAHGRHFNLRMARDTSLFSDEFKVETSNKVLDYDTSHIYTGHIYGAEGSFSHGSVIDGRFEGFIQTRGGTFYVEPAERYIKDRTLPFHSVIYHEDDINYPHKYGPQGGCADHSVFERMRKYQMTGVEEVTQIPQAEHAANGPELLRK | 142 |  | 
4 | SEQ ID NO: 62 (R29A; R55A; C151S; E177A) (peptide) NPLNKYIRHYEGLSYNVDSLHQKHQRAKAAVSHEDQFLRLDFHAHGRHFNLRMKADTSLFSDEFKVETSNKVLDYDTSHIYTGHIYGEEGSFSHGSVIDGRFEGFIQTRGGTFYVEPAERYIKDRTLPFHSVIYHEDDINYPHKYGPQGGSADHSVFERMRKYQMTGVEEVTQIPQAEHAANGPELLRK | 110 | 817 | percent inhibition of MMP activity (PEPDAB008 substrate) (MMP 3): 0 % at 8 µM; percent inhibition of MMP activity (PEPDAB008 substrate) (MMP 14): 0 % at 8 µM; percent inhibition of MMP activity (PEPDAB008 substrate) (MMP 2): 0 % at 8 µM; percent inhibition of MMP activity (PEPDAB008 substrate) (MMP 12): 0 % at 8 µM; percent inhibition of MMP activity (PEPDAB008 substrate) (MMP 9): 0 % at 8 µM
5 | C-term PEG-SEQ ID NO: 69 (R29K; R55K; E177A) (10 kDa maleimide PEG on a cysteine; printed as 'C-term PEG' in Table 5 (the listed changes keep Cys151, and paragraph 162 speaks of a cysteine at C151, or the N- or C-terminus, for SEQ ID NOs: 69-71)) NPLNKYIRHYEGLSYNVDSLHQKHQRAKKAVSHEDQFLRLDFHAHGRHFNLRMKKDTSLFSDEFKVETSNKVLDYDTSHIYTGHIYGEEGSFSHGSVIDGRFEGFIQTRGGTFYVEPAERYIKDRTLPFHSVIYHEDDINYPHKYGPQGGCADHSVFERMRKYQMTGVEEVTQIPQAEHAANGPELLRK | 71 |  | IC50, inhibition of meprin cleavage of the fluorescent substrate PEPDAB022 [2]: ~5 µM
6 | Cys151-pegylated SEQ ID NO: 5 (K28A; K54A) (10 kDa maleimide PEG on Cys151) NPLNKYIRHYEGLSYNVDSLHQKHQRAARAVSHEDQFLRLDFHAHGRHFNLRMARDTSLFSDEFKVETSNKVLDYDTSHIYTGHIYGEEGSFSHGSVIDGRFEGFIQTRGGTFYVEPAERYIKDRTLPFHSVIYHEDDINYPHKYGPQGGCADHSVFERMRKYQMTGVEEVTQIPQEEHAANGPELLRK | 83 |  | 
7 | SEQ ID NO: 34 (R29A; C151S; E177A) (peptide) NPLNKYIRHYEGLSYNVDSLHQKHQRAKAAVSHEDQFLRLDFHAHGRHFNLRMKRDTSLFSDEFKVETSNKVLDYDTSHIYTGHIYGEEGSFSHGSVIDGRFEGFIQTRGGTFYVEPAERYIKDRTLPFHSVIYHEDDINYPHKYGPQGGSADHSVFERMRKYQMTGVEEVTQIPQAEHAANGPELLRK | 95 | 289 | 
8 | SEQ ID NO: 63 (R29K; R55K; C151S; E177A) (peptide) NPLNKYIRHYEGLSYNVDSLHQKHQRAKKAVSHEDQFLRLDFHAHGRHFNLRMKKDTSLFSDEFKVETSNKVLDYDTSHIYTGHIYGEEGSFSHGSVIDGRFEGFIQTRGGTFYVEPAERYIKDRTLPFHSVIYHEDDINYPHKYGPQGGSADHSVFERMRKYQMTGVEEVTQIPQAEHAANGPELLRK | 35 | 542 | 
9 | SEQ ID NO: 5 (mut 1; K28A; K54A) (peptide) NPLNKYIRHYEGLSYNVDSLHQKHQRAARAVSHEDQFLRLDFHAHGRHFNLRMARDTSLFSDEFKVETSNKVLDYDTSHIYTGHIYGEEGSFSHGSVIDGRFEGFIQTRGGTFYVEPAERYIKDRTLPFHSVIYHEDDINYPHKYGPQGGCADHSVFERMRKYQMTGVEEVTQIPQEEHAANGPELLRK | 104 |  | 
10 | SEQ ID NO: 68 (R26A; R55A; C151S) (peptide) NPLNKYIRHYEGLSYNVDSLHQKHQAAKRAVSHEDQFLRLDFHAHGRHFNLRMKADTSLFSDEFKVETSNKVLDYDTSHIYTGHIYGEEGSFSHGSVIDGRFEGFIQTRGGTFYVEPAERYIKDRTLPFHSVIYHEDDINYPHKYGPQGGSADHSVFERMRKYQMTGVEEVTQIPQAEHAANGPELLRK | 130 |  | 
11 | SEQ ID NO: 6 (mut2; K28A; K54A; C151S) (peptide) NPLNKYIRHYEGLSYNVDSLHQKHQRAARAVSHEDQFLRLDFHAHGRHFNLRMARDTSLFSDEFKVETSNKVLDYDTSHIYTGHIYGEEGSFSHGSVIDGRFEGFIQTRGGTFYVEPAERYIKDRTLPFHSVIYHEDDINYPHKYGPQGGSADHSVFERMRKYQMTGVEEVTQIPQEEHAANGPELLRK | 106 |  | 
12 | SEQ ID NO: 66 (SEQ ID NO: 1/SEQ ID NO: 2 hybrid; R26A; R55A; C151S; E177A) (peptide) NPLNKYIRHYEGLSYNVDSLHQKHQAAKRAVSHEDQFLLLDFHAHGRQFNLRMKADTSLFSDEFKVETSNKVPDYDTSHIYTGHIYGEEGSFSHGSVIDGRFEGFIKTRGGTFYIEPAERYIKDRILPFHSVIYHEDDINYPHKYGPQGGSADHSVFERMRKYQMTGVEEVTQIPQAEHAANGPELLRK | 234 |  | 
13 | SEQ ID NO: 64 (SEQ ID NO: 2 with R29K; R55K; C151S) (peptide) NPLNKYIRHYEGLSYNVDSLHQKHQRAKKAVSHEDQFLLLDFHAHGRQFNLRMKKDTSLFSDEFKVETSNKVLDYDTSHIYTGHIYGEEGSFSHGSVIDGRFEGFIKTRGGTFYIEPAERYIKDRILPFHSVIYHEDDINYPHKYGPQGGSADHSVFERMRKYQMTGVEEGARAHPEKHAASSGPELLRK | 83 | 682 | 
14 | SEQ ID NO: 67 (SEQ ID NO: 1/SEQ ID NO: 2 hybrid; R26A; R52A; C151S) (peptide) NPLNKYIRHYEGLSYNVDSLHQKHQAAKRAVSHEDQFLRLDFHAHGRHFNLAMKRDTSLFSDEFKVETSNKVLDYDTSHIYTGHIYGEEGSFSHGSVIDGRFEGFIQTRGGTFYVEPAERYIKDRTLPFHSVIYHEDDINYPHKYGPQGGSADHSVFERMRKYQMTGVEEGARAHPEKHAASSGPELLRK | 147 |  | 
15 | C-term PEG-SEQ ID NO: 71 (R29K; R55K; C151S; E177A) (10 kDa maleimide PEG on a cysteine at the C-terminus ('C-term PEG')) NPLNKYIRHYEGLSYNVDSLHQKHQRAKKAVSHEDQFLRLDFHAHGRHFNLRMKKDTSLFSDEFKVETSNKVLDYDTSHIYTGHIYGEEGSFSHGSVIDGRFEGFIQTRGGTFYVEPAERYIKDRTLPFHSVIYHEDDINYPHKYGPQGGSADHSVFERMRKYQMTGVEEVTQIPQAEHAANGPELLRKGSGSC | 19 |  | IC50, inhibition of meprin cleavage of the fluorescent substrate PEPDAB022 [2]: ~4 µM
